Test results as given in US5994104.

Experiments:
IL-12 receptor [1] = target: IL-12 receptor
IL-12 receptor [2] = target: IL-12 receptor; remark: listed apart in the source

proliferation of PHA blasts (MTT assay, 48 hours); lowest dose with an effect (IL-12 receptor [1]): 10 pg/mL
INF-γ production by PHA blasts (ELISA, 36 hours) (IL-12 receptor [2]): 186 ng/mL
Substance: recombinant IL-12 (from UniProt P29459) (ligand)
